{
  "source": "patent US20240158479A1",
  "about": "(RUTGERS THE STATE UNIVERSITY OF NEW JERSEY, published 2024)",
  "test_in_all_cases": "cell-based or functional assay",
  "key": {"[1]": {"target": "Wuhan_Hu-1_D614G spike (B.1) on pseudovirus (SARS-CoV-2, UniProt P0DTC2 14-1273)"}, "[2]": {"target": "Wuhan_Hu-1 spike (B.1_614D) on pseudovirus (SARS-CoV-2, UniProt P0DTC2 14-1273)"}, "[3]": {"target": "Omicron BA.2.12.1 spike on pseudovirus (SARS-CoV-2)"}, "[4]": {"target": "Omicron BA.4/5 spike on pseudovirus (SARS-CoV-2)"}, "[5]": {"target": "Omicron BA.2 spike on pseudovirus (SARS-CoV-2)"}, "[6]": {"target": "Omicron BA.2.75 spike on pseudovirus (SARS-CoV-2)"}, "[7]": {"target": "Omicron BA.1 spike on pseudovirus (SARS-CoV-2)"}, "[8]": {"target": "Omicron BA.4.6 spike on pseudovirus (SARS-CoV-2)"}, "[9]": {"target": "Omicron BA.1 spike on pseudovirus (SARS-CoV-2)", "remark": "listed apart in the source"}, "[10]": {"target": "Wuhan_Hu-1 spike (B.1_614D) on pseudovirus (SARS-CoV-2, UniProt P0DTC2 14-1273)", "remark": "listed apart in the source"}, "[11]": {"target": "Gamma spike (P.1) on pseudovirus (SARS-CoV-2)"}, "[12]": {"target": "Beta spike (B.1.351) on pseudovirus (SARS-CoV-2)"}, "[13]": {"target": "Omicron BA.2.12.1 spike on pseudovirus (SARS-CoV-2)", "remark": "listed apart in the source"}, "[14]": {"target": "Delta spike (B.1.617.2) on pseudovirus (SARS-CoV-2)"}, "[15]": {"target": "Omicron BA.4/5 spike on pseudovirus (SARS-CoV-2)", "remark": "listed apart in the source"}, "[16]": {"target": "Omicron BA.2 spike on pseudovirus (SARS-CoV-2)", "remark": "listed apart in the source"}, "[17]": {"target": "Omicron BA.2.75 spike on pseudovirus (SARS-CoV-2)", "remark": "listed apart in the source"}, "[18]": {"target": "Alpha spike (B.1.1.7) on pseudovirus (SARS-CoV-2)"}, "[19]": {"target": "Omicron BA.1 spike on pseudovirus (SARS-CoV-2)", "remark": "listed apart in the source"}, "[20]": {"target": "Omicron BA.4.6 spike on pseudovirus (SARS-CoV-2)", "remark": "listed apart in the source"}, "[21]": {"target": "Wuhan_Hu-1_D614G spike (B.1) on pseudovirus (SARS-CoV-2, UniProt P0DTC2 14-1273)", "remark": "listed apart in the source"}, "[22]": {"target": "Omicron BQ.1.1 spike on pseudovirus (SARS-CoV-2)"}},
  "note": "Values joined by “and” are separate entries in the source; they are usually repeats but may differ in a detail not shown here. Equal entries are not always repeated. Where two headings read alike, the source gives them in different places.",
  "data": [
    {"binder": "Tixagevimab (antibody, V domains shown) VH: QMQLVQSGPEVKKPGTSVKVSCKASGFTFMSSAVQWVRQARGQRLEWIGWIVIGSGNTNYAQKFQERVTITRDMSTSTAYMELSSLRSEDTAVYYCAAPYCSSISCNDGFDIWGQGTMVTVSS VL: not shown", "values": [
      {"measurement": "IC50, pseudovirus neutralization", "setting": "[1]", "result": 1.2, "unit": "ng/mL"},
      {"measurement": "IC50, pseudovirus neutralization", "setting": "[2]", "result": 3.2, "unit": "ng/mL"}
    ]},
    {"binder": "Bebtelovimab (antibody, V domains shown) VH: QITLKESGPTLVKPTQTLTLTCTFSGFSLSISGVGVGWLRQPPGKALEWLALIYWDDDKRYSPSLKSRLTISKDTSKNQVVLKMTNIDPVDTATYYCAHHSISTIFDHWGQGTLVTVSS VL: QSALTQPASVSGSPGQSITISCTATSSDVGDYNYVSWYQQHPGKAPKLMIFEVSDRPSGISNRFSGSKSGNTASLTISGLQAEDEADYYCSSYTTSSAVFGGGTKLTVLG", "values": [
      {"measurement": "IC50, pseudovirus neutralization", "setting": "[1]", "result": 1.9, "unit": "ng/mL"},
      {"measurement": "IC50, pseudovirus neutralization", "setting": "[2]", "result": 2.8, "unit": "ng/mL"}
    ]},
    {"binder": "ACOVIMAB (antibody, V domains shown) VH: EVQLVESGPEVKKPGTSVKVSCKASGFTFTTTSSVQWVRQARGQRLEWIGWIVVGSGETEYAQNFQDRVTITSDMSTTTAYMEMSSLRSEDSAFYYCAAPYCSGGTCMDGFDLWGQGTLVSVSS VL: EIVLTQSPGTLSLSPGERATLSCRASQSVRSNYLGWYQQKPGQAPRLLIYAASSRATGIPDRFSGSGSGTDFTLTISRLEPEDFAVYYCQQYDRSPWTFGQGTKVESKR", "values": [
      {"measurement": "IC50, pseudovirus neutralization", "setting": "[3]", "result": "1 to 3", "unit": "ng/mL"},
      {"measurement": "IC50, pseudovirus neutralization", "setting": "[4]", "result": "150 ng/mL and 280 ng/mL"},
      {"measurement": "IC50, pseudovirus neutralization", "setting": "[5]", "result": "1 to 3", "unit": "ng/mL"},
      {"measurement": "IC50, pseudovirus neutralization", "setting": "[6]", "result": "1 to 3", "unit": "ng/mL"},
      {"measurement": "IC50, pseudovirus neutralization", "setting": "[7]", "result": "1 to 3", "unit": "ng/mL"},
      {"measurement": "IC50, pseudovirus neutralization", "setting": "[8]", "result": 150, "unit": "ng/mL"},
      {"measurement": "IC50 vs BA1", "setting": "[9]", "result": "0.9 ng/ml and 60 pM"},
      {"measurement": "IC50, pseudovirus neutralization", "setting": "[10]", "result": 9, "unit": "ng/mL"},
      {"measurement": "IC50, pseudovirus neutralization", "setting": "[11]", "result": 2.9, "unit": "ng/mL"},
      {"measurement": "IC50, pseudovirus neutralization", "setting": "[12]", "result": 2, "unit": "ng/mL"},
      {"measurement": "IC50, pseudovirus neutralization", "setting": "[13]", "result": 3.7, "unit": "ng/mL"},
      {"measurement": "IC50, pseudovirus neutralization", "setting": "[14]", "result": 5.1, "unit": "ng/mL"},
      {"measurement": "IC50, pseudovirus neutralization", "setting": "[15]", "result": 0.22, "unit": "µg/mL"},
      {"measurement": "IC50, pseudovirus neutralization", "setting": "[16]", "result": 2.9, "unit": "ng/mL"},
      {"measurement": "IC50, pseudovirus neutralization", "setting": "[17]", "result": 3.7, "unit": "ng/mL"},
      {"measurement": "IC50, pseudovirus neutralization", "setting": "[18]", "result": 5.2, "unit": "ng/mL"},
      {"measurement": "IC50, pseudovirus neutralization", "setting": "[19]", "result": 1.3, "unit": "ng/mL"},
      {"measurement": "IC50, pseudovirus neutralization", "setting": "[20]", "result": 0.22, "unit": "µg/mL"},
      {"measurement": "IC50, pseudovirus neutralization", "setting": "[21]", "result": 5.9, "unit": "ng/mL"},
      {"measurement": "IC50, pseudovirus neutralization", "setting": "[22]", "result": 0.29, "unit": "µg/mL"}
    ]},
    {"binder": "Casirivimab (antibody, V domains shown) VH: QVQLVESGGGLVKPGGSLRLSCAASGFTFSDYYMSWIRQAPGKGLEWVSYITYSGSTIYYADSVKGRFTISRDNAKSSLYLQMNSLRAEDTAVYYCARDRGTTMVPFDYWGQGTLVTVSS VL: DIQMTQSPSSLSASVGDRVTITCQASQDITNYLNWYQQKPGKAPKLLIYAASNLETGVPSRFSGSGSGTDFTFTISGLQPEDIATYYCQQYDNLPLTFGGGTKVEIK", "values": [
      {"measurement": "IC50, pseudovirus neutralization", "setting": "[1]", "result": 2.3, "unit": "ng/mL"},
      {"measurement": "IC50, pseudovirus neutralization", "setting": "[2]", "result": 6.2, "unit": "ng/mL"}
    ]},
    {"binder": "Imdevimab (antibody, V domains shown) VH: QVQLVESGGGVVQPGRSLRLSCAASGFTFSNYAMYWVRQAPGKGLEWVAVISYDGSNKYYADSVKGRFTISRDNSKNTLYLQMNSLRTEDTAVYYCASGSDYGDYLLVYWGQGTLVTVSS VL: QSALTQPASVSGSPGQSITISCTGTSSDVGGYNYVSWYQQHPGKAPKLMIYDVSKRPSGVSNRFSGSKSGNTASLTISGLQSEDEADYYCNSLTSISTWVFGGGTKLTVLG", "values": [
      {"measurement": "IC50, pseudovirus neutralization", "setting": "[1]", "result": 2.5, "unit": "ng/mL"},
      {"measurement": "IC50, pseudovirus neutralization", "setting": "[2]", "result": 4.8, "unit": "ng/mL"}
    ]},
    {"binder": "Bamlanivimab (antibody, V domains shown) VH: QVQLVQSGAEVKKPGSSVKVSCKASGGTFSNYAISWVRQAPGQGLEWMGRIIPILGIANYAQKFQGRVTITADKSTSTAYMELSSLRSEDTAVYYCARGYYEARHYYYYYAMDVWGQGTAVTVSS VL: not shown", "values": [
      {"measurement": "IC50, pseudovirus neutralization", "setting": "[1]", "result": 2, "unit": "ng/mL"},
      {"measurement": "IC50, pseudovirus neutralization", "setting": "[2]", "result": 5.3, "unit": "ng/mL"}
    ]},
    {"binder": "Etesevimab (antibody, V domains shown) VH: EVQLVESGGGLVQPGGSLRLSCAASGFTVSSNYMSWVRQAPGKGLEWVSVIYSGGSTFYADSVKGRFTISRDNSMNTLFLQMNSLRAEDTAVYYCARVLPMYGDYLDYWGQGTLVTVSS VL: not shown", "values": [
      {"measurement": "IC50, pseudovirus neutralization", "setting": "[1]", "result": 6.6, "unit": "ng/mL"},
      {"measurement": "IC50, pseudovirus neutralization", "setting": "[2]", "result": 12, "unit": "ng/mL"}
    ]}
  ]
}
